In patent US12636342B2, “TARS derived from Akkermansia muciniphila or fragment thereof, and use thereof” (KOREA RESEARCH INSTITUTE OF BIOSCIENCE AND BIOTECHNOLOGY, priority 2020, dated 2026):

Assays:
[1] = system: mouse model of dextran sulfate sodium (DSS)-induced colitis; test: DSS-induced colitis (inflammatory bowel disease) mouse model, intraperitoneal administration; format: in vivo; settings: for distribution of B cells in the colon: normal mice
Description: We evaluated the anti-inflammatory function of AmTARS in a mouse model of dextran sulfate sodium (DSS)-induced colitis. First, we assessed dose-dependent responses (i.e., changes in body weight and colon length) to intraperitoneal (i.p.) administration of AmTARS (0.05-0.4 mg/kg) once every other day for 10 days (FIG. 10A).
The disease activity score was calculated by adding up scores ranging from 0 to 4 points for each item of bloody stool, diarrhea, and weight loss, and the epithelial damage score was calculated by assigning 0 to 4 points according to the degree of colon tissue damage.
Next, to measure IgA, mouse feces were collected and diluted in PBS containing a protein inhibitor, and then a supernatant with impurities removed was obtained, and 100 μL was placed in each well of a 96-well plate to perform protein coating at 4° C. for 2 h. The plate was washed three times with a washing solution (50 mM Tris, 0.2% in PBS) and then incubated with 100 μL of blocking solution at room temperature for 1-2 h, followed by washing. HRP conjugated IgA antibody (1:30000) was added and then incubated at room temperature for 1 h, followed by washing. Thereafter, 100 μL of a substrate solution was added, followed by incubation for 30 min, and then 50 μL of a stop solution was added, followed by measurement at 405-450 nm by an ELISA reader. […]

TLR4 = molecular target: T1, TLR4 (Homo sapiens, UniProt O00206); test: Pull-down assay with TLR4 in HEK 293T cells; format: binding; settings: Strep-AmTARS and TLR4-FLAG
T1 construct: FLAG (C); expressed in transfected cells; host or cells: HEK 293T
Text: (A) AmTARS-interacting candidates identified from membrane protein interactome analysis. Potential interactors (receptors) involved in innate immunity are indicated in red. (B-D) Pull-down of Strep-AmTARS co-expressed with NLRX1-FLAG (B), CD163-FLAG (C), and TLR4-FLAG (D) in HEK 293T cells. Data shown are representative of three independent experiments, each with similar results.
Then, Strep-tagged AmTARS, AmTARS having deletions of two functional site (AmTARSΔ1Δ2), and FLAG-tagged TLR2 were transduced into human-derived HEK 293T cells through PEI, and thereafter, the cells were lysed using a lysis buffer containing 50 mM Tris-HCl (pH 7.5), 100 mM NaCl, 1% NP-40, 1 mM EDTA, 0.25% Na-deoxycholate, and a protease inhibitor cocktail. The cell lysates each were incubated with Strep Tactin beads and washed with a buffer containing 137 mM NaCl, 2.7 mM KCl, 10 mM Na2HPO4, 1.8 mM KH2PO4, and 1 mM EDTA, and proteins attached to the beads were eluted and analyzed by immunoblotting.

BMDMs = test: Immunoblotting of AmTARS/TLR2-induced signaling molecules in BMDMs; format: cell-based, mouse
Description: (A and B) Analysis of key molecules that inhibit the MAPK and PI3K/AKT signaling pathways. IL-10 produced by BMDMs pre-treated with inhibitors of ERK (PD98059, […]), p38 (SB203580, […]), MSK1/2 (SB747651A, 10 μM), CREB (666-15, 1 μM), PI3K (Wortmannin, 10 μM), and AKT1/2 (AKT1/2, 10 μM) for 1 h before treatment with either PBS or AmTARS for 24 h (n=6 per group) (A). Flow cytometry analysis of M2 macrophages in BMDMs pre-treated for 1 h with the indicated kinase inhibitors, before treatment with either PBS or AmTARS for 24 h (n=3 per group) (B). (C and D) Western blot analysis of MAPK signaling molecules in lysates of BMDMs (C) or THP1 cells (D) treated for different times with 0.5 μM AmTARS. (E) Western blot analysis of lysates of BMDMs pre-treated with α-IgG (Isotype, 1 μg ml-1) or α-TLR2 (1 μg ml-1) for 1 h before treatment with PBS, AmTARS (0.5 μM), or Pam3 (0.5 μM) for 30 min. (F and G) Western blot analysis of PI3K/AKT signaling molecules in lysates of BMDMs (F) or THP1 cells (G) treated with 0.5 μM AmTARS. (H) AmTARS activates both TLR2/1- and TLR2/6-mediated signaling. Activation of AKT, ERK, and CREB was measured by western blot analysis of lysates of THP1 cells pre-treated with α-IgG, α-TLR1, α-TLR2, or α-TLR6 (1 μg ml-1) for 1 h before treatment for 30 min with PBS or AmTARS (0.5 µM). Data shown in (A and B) are representative of three independent experiments, each with similar results (mean±SEM). P-values were calculated using an unpaired two-tailed Student's t-test. Data shown in (C-H) are representative and repeated at least three times.
Subsequently, we conducted immunoblotting assays to measure the time-dependent activation of AmTARS/TLR2-induced signaling molecules in both BMDMs and THP1 cells. AmTARS rapidly activated ERK, p38, and MSK1/2 within 15 min and, subsequently, phosphorylation of CREB at Ser133 (which is essential for IL-10 production) within 30 min in BMDMs (FIG. 31C) and THP1 cells (FIG. 31D). We then compared AmTARS-triggered TLR2 signaling with typical ligand-triggered signaling using Pam3CSK4 (the synthetic canonical TLR2/1 agonist, referred to hereafter as Pam3) in BMDMs stimulated for 30 min. […] By contrast, activation of NF-κB was greater in Pam3-treated BMDMs than in AmTARS-treated BMDMs (FIG. 31E).

[2] = DSS-induced colitis mice, i.p., AmTARS 0.2 mg/kg
[3] = DSS-induced colitis mice, particularly proximal colon, versus control mice
[4] = i.p. 0.05-0.4 mg/kg once every other day for 10 days
[5] = inflammatory bowel disease mouse model
[6] = normal mice (control of B cell-deficient experiment)

T1 sequence (O00206 24-839): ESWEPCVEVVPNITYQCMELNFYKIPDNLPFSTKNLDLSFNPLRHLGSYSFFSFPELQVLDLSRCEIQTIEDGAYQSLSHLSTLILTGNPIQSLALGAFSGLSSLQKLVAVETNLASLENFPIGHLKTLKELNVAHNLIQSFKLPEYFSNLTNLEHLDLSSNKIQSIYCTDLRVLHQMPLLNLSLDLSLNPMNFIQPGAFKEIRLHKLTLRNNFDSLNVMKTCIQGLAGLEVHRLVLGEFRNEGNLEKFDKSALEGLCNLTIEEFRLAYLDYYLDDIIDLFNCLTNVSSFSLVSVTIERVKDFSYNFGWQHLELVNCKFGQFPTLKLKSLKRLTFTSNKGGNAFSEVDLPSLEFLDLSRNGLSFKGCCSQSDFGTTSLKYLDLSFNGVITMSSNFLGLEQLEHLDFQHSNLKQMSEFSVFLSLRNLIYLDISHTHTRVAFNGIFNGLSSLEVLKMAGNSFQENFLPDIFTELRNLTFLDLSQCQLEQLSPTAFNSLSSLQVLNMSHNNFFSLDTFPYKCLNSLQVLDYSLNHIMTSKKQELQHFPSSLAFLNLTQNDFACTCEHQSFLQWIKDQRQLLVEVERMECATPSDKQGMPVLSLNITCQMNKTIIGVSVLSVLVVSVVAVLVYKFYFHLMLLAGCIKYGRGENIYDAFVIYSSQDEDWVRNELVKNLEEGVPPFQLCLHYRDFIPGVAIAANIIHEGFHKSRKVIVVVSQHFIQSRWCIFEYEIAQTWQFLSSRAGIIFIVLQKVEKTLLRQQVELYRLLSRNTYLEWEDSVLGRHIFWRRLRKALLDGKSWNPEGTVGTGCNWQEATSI

B1: Akkermansia muciniphila-derived threonyl-tRNA synthetase (TARS) (protein)
chain: MSEHKERKTLEERQQMSDLERLRHSCAHVLATAICRLWPDAQLAGGPAVDNGFYYDVELDHRISTEDFERIEEEMKKVVKENQVFQKEVISRADAMKMAESGELGALGPRSEPSRFKIDLLNDIPEDEEISLYRNGDFTDLCAGPHVGRTGNCKAFKIMSVASAFYKGDKNRPMLQRIYGTCFPNRTQLDEHLERLEEARRRDHRKLGRELGLFCIDESVGQGLILWKPKGALIRRSLQDFITEELDKLGYSQVYTPNIGKLDLYRTSGHFPYYQESQYAPIPERDAMEKLSQEGASCAELFNGLATGTIEGYMLKPMNCPHHIKIYANDAHSYRDLPVRLAEFGTVYRWEQSGELGGMTRVRGFTQDDAHIFCTPDQLAGEIRQCLGIVKTIFGTLGMTDYRVRLSMRDPESDKYVGSPENWDKAEQALREAAEWLGADYSEEAGEAAFYGPKIDFIVRDAIGREWQLGTVQVDYNLPERFDLHYTGADNKPHRPVMVHRAPFGSMERFTGLLIEHFEGKFPTWLSPEQVRVLPISDKVTDVAAAHRTALAARGVRVTVDETPDKIGAKIRNARLDRVPYMLVLGQREAEDGTVSVRHRDKGDLGAMPFEQFADLVAREIAERHISPVI
modifications: Akkermansia muciniphila TARS
B1 was tested, and the “therapeutic effects on colitis pathology” value ([1]; AmTARS 0.2 mg kg-1 versus mIL-10 0.02 mg kg-1) was “comparable with those of IL-10”, the “IL-10-positive macrophage (CD11b+F4/80+IL-10+) numbers within colonic cells” value ([1]; DSS-induced colitis mice) was “restored” and the “IL-10 levels in serum” value ([1]; DSS-induced colitis mice) was “increased”. For the same molecule, the body weight loss [1, 2] was “ameliorated”, the “colon shortening / shortening of the intestine” value [1, 2] was “ameliorated” and the disease activity scores [1, 2] was “ameliorated”. The “disruption of the epithelial lining” value [1, 3] was “significantly lower”, the epithelial damage score [1, 3] was “significantly lower” and the “colitis-induced infiltration of inflammatory monocytes (CD11b+F4/80−)” value ([1]; colon cells, DSS-induced colitis mice) was “significantly suppressed”. The body weight loss ([1]; i.p. 0.4 mg/kg, up to 7 days) was “significantly attenuated”, the “body weight loss, dose response” value [1, 4] was “attenuated body weight loss and colon shortening in a dose-dependent manner” and the “colon shortening, dose response” value [1, 4] was “attenuated body weight loss and colon shortening in a dose-dependent manner”. For the same molecule, the “secretion of the cytokine IL-10 in the mouse plasma” value [1, 5] was “increased the secretion”, the “distribution of B cells in the colon” value [1, 5] was “increase in B cells” and the “distribution of B cells in the colon” value ([1]; inflammatory bowel disease mouse model, listed as TARS) was “significantly increased”. For the same molecule, the “amount of IgA increased due to an inflammatory response” value ([1]; mouse feces, ELISA) was “reduced the amount of IgA”, the “colon tissue damage due to inflammatory bowel disease” value [1, 6] was “alleviated” and the “intestine length reduction due to inflammatory bowel disease” value [1, 6] was “alleviated”. The “interaction with TLR4 (pull-down)” value (TLR4) was “no interaction”, the “activation of CREB, AmTARS versus Pam3” value (BMDMs; BMDMs stimulated for 30 min, 0.5 μM) was “significantly greater” and the “time to activation of AKT” value (BMDMs; BMDMs, 0.5 μM AmTARS) was at most 15 min. For the same molecule, the “time to activation of ERK” value (BMDMs; BMDMs, 0.5 μM AmTARS) was at most 15 min, the “time to activation of MSK1/2” value (BMDMs; BMDMs, 0.5 μM AmTARS) was at most 15 min and the “time to activation of PI3K” value (BMDMs; BMDMs, 0.5 μM AmTARS) was at most 15 min. The “time to activation of p38” value (BMDMs; BMDMs, 0.5 μM AmTARS) was at most 15 min, the “time to inhibition of GSK3β activity (phosphorylation at Ser9)” value (BMDMs; BMDMs, 0.5 μM AmTARS) was at most 15 min and the “time to phosphorylation of CREB at Ser133” value (BMDMs; BMDMs, 0.5 μM AmTARS) was at most 30 min.
